In article PMC3139367 (Journal of molecular biology, 2011):
Like-named read-outs stand apart in the source and are kept apart here.

Legend:
[1] = target: p300/CBP KIX (UniProt Q92793); conditions: cited from earlier work
[2] = target: T1, GST-KIX (aa 588-683, from mouse CBP) (mouse, UniProt P45481 588-683); experiment: native gel or EMSA
[3] = target: untagged KIX (aa 587-679, from mouse CBP) (mouse, UniProt P45481 587-679); experiment: cross-linking
[4] = target: T1, GST-KIX (aa 588-683, from mouse CBP); experiment: native gel or EMSA; remark: listed apart in the source

T1 sequence (P45481 588-683): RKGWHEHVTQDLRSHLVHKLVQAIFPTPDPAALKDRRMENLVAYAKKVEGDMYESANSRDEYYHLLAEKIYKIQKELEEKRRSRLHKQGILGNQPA
Sequence of untagged KIX (aa 587-679, from mouse CBP) (P45481 587-679): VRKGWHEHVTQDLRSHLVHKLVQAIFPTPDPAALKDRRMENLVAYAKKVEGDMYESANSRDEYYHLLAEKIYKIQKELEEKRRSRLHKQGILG
Sequence of p300/CBP KIX (Q92793 587-666): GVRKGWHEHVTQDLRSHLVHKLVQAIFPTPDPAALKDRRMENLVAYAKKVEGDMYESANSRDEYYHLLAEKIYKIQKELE

In the case of CREB (from UniProt P16220), the Kd [1] is listed as 108000 nM.

B1: Gal4-HBZ-AD wt (Gal4-DBD aa 1-147 fused to the N-terminus of HBZ-AD aa 1-77) (domain or fragment)
chain: MAASGLFRCLPVSCPEDLLVEELVDGLLSLEEELKDKEEEEAVLDGLLSLEEESRGRLRRGPPGEKAPPRGETHRDR
For B1, the Kd [2] was 3 ± 0.5 nM.

B2: HBZ-AD wt (aa 1-77, without the Gal4-DBD fusion) (domain or fragment)
chain: MAASGLFRCLPVSCPEDLLVEELVDGLLSLEEELKDKEEEEAVLDGLLSLEEESRGRLRRGPPGEKAPPRGETHRDR
With B2 the “stoichiometry N” value [3] was 1.

B3: Gal4-HBZ-Mut-AD1 (domain or fragment)
chain: MAASGLFRCLPVSCPEDLLVEELVDGAASLEEELKDKEEEEAVLDGLLSLEEESRGRLRRGPPGEKAPPRGETHRDR
For B3, the Kd [4] was 800 nM.

B4: Gal4-HBZ-Mut-AD2 (domain or fragment)
chain: MAASGLFRCLPVSCPEDLLVEELVDGLLSLEEELKDKEEEEAVLDGAASLEEESRGRLRRGPPGEKAPPRGETHRDR
B4 showed a Kd [4] of 180 nM.
